Results taken from patent US20250197505A1 (DREN BIO, published 2025).
Each block holds one binder with its values, some of them ahead of it.

Legend:
[1] = target: T1, human CD94 expressed on cells (human primary NK cells in PBMCs; HEK cells expressing human CD94) (human, UniProt Q13241 1-179); test: cell-based or functional assay
T1 sequence (looked up): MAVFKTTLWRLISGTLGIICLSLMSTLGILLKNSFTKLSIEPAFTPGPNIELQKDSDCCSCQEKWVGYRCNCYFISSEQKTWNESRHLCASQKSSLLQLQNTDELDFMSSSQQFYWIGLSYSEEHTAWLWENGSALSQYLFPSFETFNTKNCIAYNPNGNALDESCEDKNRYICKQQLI

[2] = target: T2, cynomolgus CD94 expressed on HEK293 cells (cynomolgus monkey, UniProt Q68VD4 1-179); test: flow cytometry, hybridoma supernatant on cynomolgus CD94-expressing HEK293 cells
T2 construct: also called cyno-CD94; cynomolgus monkey CD94
T2 sequence: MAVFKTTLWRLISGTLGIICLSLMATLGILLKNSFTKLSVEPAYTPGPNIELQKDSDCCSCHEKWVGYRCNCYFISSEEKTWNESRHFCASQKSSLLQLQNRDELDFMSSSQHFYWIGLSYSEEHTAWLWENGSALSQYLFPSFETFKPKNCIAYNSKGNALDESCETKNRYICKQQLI
Text: (§1) Anti-CD94 hybridoma supernatants were screened on cynomolgus CD94-expressing HEK293 cells by flow cytometry for cross-reactivity to cynomolgus CD94. HP-3D9 is a commercial anti-CD94 antibody that was used as a negative control. Mouse IgG1, IgG2a, IgG2b and IgG3 were used as negative controls. […] Commercially available anti-CD94 antibodies were used to test cynomolgus cross-reactivity. 18H3 was used as a positive control. The MFI of each antibody was normalized to the MFI of its respective isotype.
(§2) Cynomolgus CD94-expressing HEK293 cells were seeded in 96-well plates at a density of 100,000 cells per well, incubated with cell viability dye (Thermo Fisher) for 30 minutes on ice and protected from light. The cells were washed once with FACS buffer (PBS with 2% IgG low FBS). Hybridoma supernatants, anti-CD94 antibodies and isotype controls were incubated with cells for 30 minutes on ice and protected from light. […] After incubation, the cells received a final wash in FACS buffer before quantification on the Cytoflex (Beckman Coulter). All data acquisition and fluorescence compensation were performed using CytoFlex (Beckman Coulter, Atlanta, GA). […] CD94 expression was then quantified on this population. […]

[3] = target: T1, human CD94 expressed on cells (human …); test: flow cytometry titration on CD3-CD56+ NK cells in healthy donor PBMCs; 'Affinity on Human NK Cells'; the filing derives these affinities as EC50 of titration curves (the 2.6nM of 18H3 is labelled EC50 in FIG. 1)
Experimental: Healthy donor PBMCs were seeded in 96 well plates at a density of 100,000 cells per well, incubated with human Fc block (Biolegend) and cell viability dye (Thermo Fisher) for 30 minutes on ice and protected from light. The cells were washed once with FACS buffer (PBS with 2% IgG low FBS). anti-CD94 antibodies at concentrations of 100 nM to 0.046 nM, 1:3-fold dilutions, were incubated with cells for 30 minutes on ice and protected from light. The cells were then washed and incubated with goat IgG anti-mouse Fey specific AF647 secondary antibody or goat (Fab)2 fragment anti-human Fey specific AF647 secondary antibody (Jackson immuno research), anti-CD3 pacific blue-labelled and anti-CD56 FITC-labelled antibodies (Biolegend) for 30 minutes on ice and protected from light. After incubation, the cells received a final wash in FACS buffer before quantification on the Cytoflex (Beckman Coulter). All data acquisition and fluorescence compensation were performed using CytoFlex (Beckman Coulter, Atlanta, GA). Data analysis was performed using FlowJo software. NK cells were identified through gating on lymphocytes on the forward and side scatter, followed by doublet and dead cell exclusion, and gated on the CD3−CD56+ population. CD94 expression was then quantified on the CD3−CD56+NK cell population. […]
The affinity of the antibody clones was also assessed by flow cytometry analysis.

[4] = target: T1, human CD94 expressed on cells (human …); test: HLA-E tetramer blocking assay, flow cytometry on CD3-CD56+ NK cells in healthy donor PBMCs; antibody at one saturating concentration, blocked ligand PE-labelled HLA-E tetramer; percent blocking = 100-((percent HLA-E positive with antibody)/(percent HLA-E positive with isotype)*100)
Experimental: Healthy donor PBMCs were incubated with anti-CD94 antibodies. PE labeled HLA-E tetramer was then incubated with the cell and antibody mixture, and detected using flow cytometry. For HP-3B1, 131412, 12K45, DX22, 1M4 and 1E4, 2.5 μl of HLA-E tetramer reagent was used, while 5 μl was used for 18H3 and HP-3D9. Saturating concentrations of each antibody was used in this assay. The percent blocking was calculated as 100−((percent HLA-E positive for anti-CD94 antibody)/(percent HLA-E positive for isotype)*100).
Healthy donor PBMCs were seeded in 96-well plates at a density of 100,000 cells per well, incubated with human Fc block (Biolegend) and cell viability dye (Thermo Fisher) for 30 minutes on ice and protected from light. The cells were washed once with FACS buffer (PBS with 2% IgG low FBS). anti-CD94 antibodies at EC80 concentrations were incubated with cells for 30 minutes on ice and protected from light. After incubation with the anti-CD94 antibodies, the cells were washed and incubated with HLA-E tetramer PE (Creative Biolabs), anti-CD3 pacific blue-labelled, and anti-CD56 FITC-labelled antibodies (Biolegend) for 30 minutes on ice and protected from light. The cells then received a final wash in FACS buffer before quantification on the Cytoflex (Beckman Coulter). All data acquisition and fluorescence compensation were performed using CytoFlex (Beckman Coulter, Atlanta, GA). Data analysis was performed using FlowJo software. NK cells were identified through gating on lymphocytes on the forward and side scatter, followed by doublet and dead cell exclusion, and gated on the CD3−CD56+ population. HLA-E expression was then quantified on the CD3−CD56+NK cell population. Percent blocking was calculated as 100−((percent HLA-E positive for anti-CD94 antibody)/(percent HLA-E positive for isotype)*100).

[5] = target: T2, cynomolgus CD94 expressed on HEK293 …; test: flow cytometry, cynomolgus CD94-expressing HEK293 cells
Text: as §1, §2

percent decrease in MFI (antibody internalization assay), comparing 0.5 hours to 24 hours at 37° C. [1]: 18%
binding result [2]: binds
EC50 [3]: 75 nM
HLA-E Blocking [4]: 0%
B1: anti-CD94 antibody clone 1E4 (antibody, V domains shown)
VH: QVTLRESGPALVKPTQTLTLTCTFSGFSLSTSDLCVSWIRQPPGKALEWLALIDWNDDKYYSTSLQTRLTISKDTSKNQVVLTMTNMDPVDTATYYCARTIAAAGPYDAFDIWGQGTMVTVSS
VL: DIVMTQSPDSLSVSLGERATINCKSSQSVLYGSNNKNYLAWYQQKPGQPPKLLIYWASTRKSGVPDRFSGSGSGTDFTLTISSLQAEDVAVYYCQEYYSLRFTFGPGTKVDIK
notes: also called fucosylated 1E4

percent decrease in MFI (antibody internalization assay), comparing 0.5 hours to 24 hours at 37° C. [1]: 32%
binding result [5]: binds
EC50 [3]: 7 nM
HLA-E Blocking [4]: 0%
B2: anti-CD94 antibody clone 1M4 (antibody, V domains shown)
VH: QLVESGGGLVQPGGSLRLACAASGFTFSNYAMNWVRQAPGKGLEWVSVISGSGDTTYCADSVKGRFTISRDNSKNTLHLQLNSLRAEDTAVYYCAKNCYGSGSYYNHFDYWGQGTLVTVSS
VL: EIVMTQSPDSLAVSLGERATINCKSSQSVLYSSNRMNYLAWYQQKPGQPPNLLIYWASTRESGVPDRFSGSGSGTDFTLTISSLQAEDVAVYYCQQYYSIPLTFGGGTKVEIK
